Data as given in patent US20150196533A1, “METHOD FOR CONCURRENT TREATMENT OF PAIN AND DEPRESSION” (The General Hospital Corporation, priority 2012, published 2015).
“Also recorded” adds a separate entry of the source.

Assays:
IDO1 = experiment: Intra-hippocampal microinjection in naive rats: hippocampal IDO1 mRNA (real-time PCR); type: in vivo, rat; settings: 0.1 μg once daily x 7 d into the left hippocampus of naive rats; P<0.05
Experimental: Under brief isoflurane anesthesia, a guide cannula (26 gauge, Plasticsone) was implanted just above the hippocampus (AP: −3.6 mm; left: +2.0 mm from Bregma; depth: −4.0 mm from skin) (Paxinos, G., and Watson, C. 1998. The rat brain in stertaxic coordinates. New York: Academic Press). An injection needle (33 gauge, Plasticsone) was inserted through the guide cannula and drug solution or vehicle (0.5 μl) was slowly injected over 5 min using a Hamilton syringe. Locations of the cannula placement were confirmed at the time of tissue harvest (data not shown).
Total RNA was isolated from hippocampal samples using TRIzol reagent (Invitrogen). Four μg of total RNA was used to synthesize the first strand cDNA using SuperScript III kit (Invitrogen). Four μl of cDNA was put into 20 μl vessel with 1 μl of 20× TaqMan Gene Expression Assay. Taqman Gene Expression Assays (Applied Biosystems) containing primers and a Taqman probe were used to quantify each gene of interest. The genes examined were IL-6 (Rn01410330 m1, M26744.1) and IDO1 (Rn00576778 m1, AF312699.1) for rats and IL-6 (Mm00446190 m1, X54542.1) and IDO1 (Mm00492586 m1, M69109.1) for mice. […] The RNA expression of GAPDH was measured as control.

[1] = test system: IDO1 expression in hippocampal organotypic slice culture; experiment: IL-6 exposure of organotypic hippocampal slice culture: IDO1 expression and activity; type: cell-based, rat; settings: 100 ng/ml for 24 hours
Source text: According to a modified method (Stoppini, L., Buchs, P. A., and Muller, D. 1991. A simple method for organotypic cultures of nervous tissue. J Neurosci. Methods 37:173-182.; Fu, X., Zunich, S. M., O'Connor, J. C., Kavelaars, A., Dantzer, R., and Kelley, K. W. 2010. Central administration of lipopolysaccharide induces depressive-like behavior in vivo and activates brain indoleamine 2,3 dioxygenase in murine organotypic hippocampal slice cultures. J Neuroinflammation. 7:43) organotypic hippocampal cultures were prepared using hippocampus slices from 5 to 8-day-old Wistar rats. Rat pups were euthanized by decapitation and brains were rapidly removed and the hippocampus was separated from the brain. Hippocampal slices (350 μm in thickness) were made using a Mcllwain tissue chopper (Campden Instruments Ltd) and placed in the Gey's balanced salt solution (Sigma-Aldrich) with 2 mg/ml D-glucose. Slices were then placed on 30-mm Millicell-CM (Millipore) porous (0.4 μm) membranes. These membranes were transferred into six-well culture plates filled with an incubation medium (1 ml) consisting of 50% vol/vol minimal essential medium, 25% heat-inactivated horse serum and 25% HBSS (Invitrogen), supplemented with 25 mM D-glucose. Plates were incubated in a humidified atmosphere of 5% CO2 and 95% air at 37° C. Culture medium was changed 3 times a week. Slices were treated with 100 ng/ml IL-6 or vehicle and collected 24 hours later for assays (Hakkoum, D., Stoppini, L., and Muller, D. 2007. Interleukin-6 promotes sprouting and functional recovery in lesioned organotypic hippocampal slice cultures. J Neurochem. 100:747-757).
Rats were sacrificed under pentobarbital anesthesia. The hippocampus was separated from the brain and immediately stored on dry ice and kept at −80° C. until use. Samples were homogenized in a lysis buffer with SDS containing a cocktail of proteinase inhibitors (Roche). Samples were separated on an SDS-PAGE gel (4%-15% gradient gel; Bio-Rad) and transferred to polyvinylidene difluoride filter (PVDF) membranes (Millipore). Membranes were blocked with 5% nonfat dried milk for 1 hour at room temperature and incubated over night at 4° C. on a rocker with one of following primary antibody: 1:200 IDO1 (Santa Cruz Biotechnology Inc.; rabbit polyclonal antibody), 1:200 IDO1 (Novius Biologicals; rabbit polyclonal antibody), 1:500 JAK2 (Santa Cruz Biotechnology Inc.; rabbit polyclonal antibody), 1:1,000 STAT3 (Millipore; rabbit polyclonal antibody), 1:5,000 p-STAT3 (Abcam; rabbit monoclonal antibody). After membranes were washed with PBS×4, membranes were incubated with 1:8,000 HRP conjugated secondary antibody (Amersham, Biosciences) for 1 hour at room temperature on a rocker. The membranes were washed with PBS×4 and blots were visualized in enhanced Chemiluminescent (ECL) solution (Pierce) for 5 minutes and exposed to hyperfilms (Kodak) for 15 minutes. Blots were again incubated in a Stripping buffer (Pierce) for 15 minutes at room temperature on a rocker and reprobed with 1:12,000 anti-β-actin antibody (Abeam Inc.) as a loading control. Western blots were made in triplicates. Band density was measured and normalized against a loading control band.
Total RNA was isolated from hippocampal samples using TRIzol reagent (Invitrogen). […] Taqman Gene Expression Assays (Applied Biosystems) containing primers and a Taqman probe were used to quantify each gene of interest. […]

B1: IL-6: exogenous IL-6 (recombinant rat IL-6), proinflammatory cytokine (protein, UniProt P20607 25-211, looked up)
Interleukin-6: FPTSQVRRGDFTEDTTHNRPVYTTSQVGGLITYVLREILEMRKELCNGNSDCMNSDDALSENNLKLPEIQRNDGCFQTGYNQEICLLKICSGLLEFRFYLEFVKNNLQDNKKDKARVIQSNTETLVHIFKQEIKDSYKIVLPTPTSNALLMEKLESQKEWLRTKTIQLILKALEEFLKVTMRSTRQT
- hippocampal IDO1 mRNA expression (FIG. 9H) (IDO1): increased IDO1 mRNA expression in the hippocampus; also recorded: up-regulated the hippocampal IDO1 mRNA expression
- IDO1 immunoreactivity (FIG. 8F) [1]: increased IDO1 immunoreactivity; also recorded: increased the expression of IDO1
- IDO1 mRNA expression (real-time PCR; FIG. 8G) ([1]; P<0.05): up-regulated; also recorded: increased the expression of IDO1
- IDO1 protein expression (Western blot; FIG. 8H) ([1]; P<0.05): up-regulated; also recorded: increased the expression of IDO1
- kynurenine/tryptophan ratio in the culture medium (HPLC; FIG. 8I) ([1]; P<0.05): significantly increased; also recorded: increased KYN/TRP ratio
- serotonin/tryptophan ratio in the culture medium (HPLC; FIG. 8I) ([1]; P<0.05): decreased 5-HT/TRP ratio
